From IntAct's records for PubMed 22270917

B1: Focal adhesion kinase 1 (Homo sapiens), Q05397 (parent)
chain: MAAAYLDPNLNHTPNSSTKTHLGTGMERSPGAMERVLKVFHYFESNSEPTTWASIIRHGDATDVRGIIQKIVDSHKVKHVACYGFRLSHLRSEEVHWLHVDMGVSSVREKYELAHPPEEWKYELRIRYLPKGFLNQFTEDKPTLNFFYQQVKSDYMLEIADQVDQEIALKLGCLEIRRSYWEMRGNALEKKSNYEVLEKDVGLKRFFPKSLLDSVKAKTLRKLIQQTFRQFANLNREESILKFFEILSPVYRFDKECFKCALGSSWIISVELAIGPEEGISYLTDKGCNPTHLADFTQVQTIQYSNSEDKDRKGMLQLKIAGAPEPLTVTAPSLTIAENMADLIDGYCRLVNGTSQSFIIRPQKEGERALPSIPKLANSEKQGMRTHAVSVSETDDYAEIIDEEDTYTMPSTRDYEIQRERIELGRCIGEGQFGDVHQGIYMSPENPALAVAIKTCKNCTSDSVREKFLQEALTMRQFDHPHIVKLIGVITENPVWIIMELCTLGELRSFLQVRKYSLDLASLILYAYQLSTALAYLESKRFVHRDIAARNVLVSSNDCVKLGDFGLSRYMEDSTYYKASKGKLPIKWMAPESINFRRFTSASDVWMFGVCMWEILMHGVKPFQGVKNNDVIGRIENGERLPMPPNCPPTLYSLMTKCWAYDPSRRPRFTELKAQLSTILEEEKAQQEERMRMESRRQATVSWDSGGSDEAPPKPSRPGYPSPRSSEGFYPSPQHMVQTNHYQVSGYPGSHGITAMAGSIYPGQASLLDQTDSWNHRPQEIAMWQPNVEDSTVLDLRGIGQVLPTHLMEERLIRQQQEMEEDQRWLEKEERFLKPDVRLSRGSIDREDGSLQGPIGNQHIYQPVGKPDPAAPPKKPPRPGAPGHLGSLASLSSPADSYNEGVKLQPQEISPPPTANLDRSNDKVYENVTGLVKAVIEMSSKIQPAPPEEYVPMVKEVGLALRTLLATVDETIPLLPASTHREIEMAQKLLNSDLGELINKMKLAQQYVMTSLQQEYKKQMLTAAHALAVDAKNLLDVIDQARLKMLGQTRPH

Variants of: B1
Settings: with tln1_chick TLN1, P54939
Chain of tln1_chick TLN1, P54939 (P54939 whole entry): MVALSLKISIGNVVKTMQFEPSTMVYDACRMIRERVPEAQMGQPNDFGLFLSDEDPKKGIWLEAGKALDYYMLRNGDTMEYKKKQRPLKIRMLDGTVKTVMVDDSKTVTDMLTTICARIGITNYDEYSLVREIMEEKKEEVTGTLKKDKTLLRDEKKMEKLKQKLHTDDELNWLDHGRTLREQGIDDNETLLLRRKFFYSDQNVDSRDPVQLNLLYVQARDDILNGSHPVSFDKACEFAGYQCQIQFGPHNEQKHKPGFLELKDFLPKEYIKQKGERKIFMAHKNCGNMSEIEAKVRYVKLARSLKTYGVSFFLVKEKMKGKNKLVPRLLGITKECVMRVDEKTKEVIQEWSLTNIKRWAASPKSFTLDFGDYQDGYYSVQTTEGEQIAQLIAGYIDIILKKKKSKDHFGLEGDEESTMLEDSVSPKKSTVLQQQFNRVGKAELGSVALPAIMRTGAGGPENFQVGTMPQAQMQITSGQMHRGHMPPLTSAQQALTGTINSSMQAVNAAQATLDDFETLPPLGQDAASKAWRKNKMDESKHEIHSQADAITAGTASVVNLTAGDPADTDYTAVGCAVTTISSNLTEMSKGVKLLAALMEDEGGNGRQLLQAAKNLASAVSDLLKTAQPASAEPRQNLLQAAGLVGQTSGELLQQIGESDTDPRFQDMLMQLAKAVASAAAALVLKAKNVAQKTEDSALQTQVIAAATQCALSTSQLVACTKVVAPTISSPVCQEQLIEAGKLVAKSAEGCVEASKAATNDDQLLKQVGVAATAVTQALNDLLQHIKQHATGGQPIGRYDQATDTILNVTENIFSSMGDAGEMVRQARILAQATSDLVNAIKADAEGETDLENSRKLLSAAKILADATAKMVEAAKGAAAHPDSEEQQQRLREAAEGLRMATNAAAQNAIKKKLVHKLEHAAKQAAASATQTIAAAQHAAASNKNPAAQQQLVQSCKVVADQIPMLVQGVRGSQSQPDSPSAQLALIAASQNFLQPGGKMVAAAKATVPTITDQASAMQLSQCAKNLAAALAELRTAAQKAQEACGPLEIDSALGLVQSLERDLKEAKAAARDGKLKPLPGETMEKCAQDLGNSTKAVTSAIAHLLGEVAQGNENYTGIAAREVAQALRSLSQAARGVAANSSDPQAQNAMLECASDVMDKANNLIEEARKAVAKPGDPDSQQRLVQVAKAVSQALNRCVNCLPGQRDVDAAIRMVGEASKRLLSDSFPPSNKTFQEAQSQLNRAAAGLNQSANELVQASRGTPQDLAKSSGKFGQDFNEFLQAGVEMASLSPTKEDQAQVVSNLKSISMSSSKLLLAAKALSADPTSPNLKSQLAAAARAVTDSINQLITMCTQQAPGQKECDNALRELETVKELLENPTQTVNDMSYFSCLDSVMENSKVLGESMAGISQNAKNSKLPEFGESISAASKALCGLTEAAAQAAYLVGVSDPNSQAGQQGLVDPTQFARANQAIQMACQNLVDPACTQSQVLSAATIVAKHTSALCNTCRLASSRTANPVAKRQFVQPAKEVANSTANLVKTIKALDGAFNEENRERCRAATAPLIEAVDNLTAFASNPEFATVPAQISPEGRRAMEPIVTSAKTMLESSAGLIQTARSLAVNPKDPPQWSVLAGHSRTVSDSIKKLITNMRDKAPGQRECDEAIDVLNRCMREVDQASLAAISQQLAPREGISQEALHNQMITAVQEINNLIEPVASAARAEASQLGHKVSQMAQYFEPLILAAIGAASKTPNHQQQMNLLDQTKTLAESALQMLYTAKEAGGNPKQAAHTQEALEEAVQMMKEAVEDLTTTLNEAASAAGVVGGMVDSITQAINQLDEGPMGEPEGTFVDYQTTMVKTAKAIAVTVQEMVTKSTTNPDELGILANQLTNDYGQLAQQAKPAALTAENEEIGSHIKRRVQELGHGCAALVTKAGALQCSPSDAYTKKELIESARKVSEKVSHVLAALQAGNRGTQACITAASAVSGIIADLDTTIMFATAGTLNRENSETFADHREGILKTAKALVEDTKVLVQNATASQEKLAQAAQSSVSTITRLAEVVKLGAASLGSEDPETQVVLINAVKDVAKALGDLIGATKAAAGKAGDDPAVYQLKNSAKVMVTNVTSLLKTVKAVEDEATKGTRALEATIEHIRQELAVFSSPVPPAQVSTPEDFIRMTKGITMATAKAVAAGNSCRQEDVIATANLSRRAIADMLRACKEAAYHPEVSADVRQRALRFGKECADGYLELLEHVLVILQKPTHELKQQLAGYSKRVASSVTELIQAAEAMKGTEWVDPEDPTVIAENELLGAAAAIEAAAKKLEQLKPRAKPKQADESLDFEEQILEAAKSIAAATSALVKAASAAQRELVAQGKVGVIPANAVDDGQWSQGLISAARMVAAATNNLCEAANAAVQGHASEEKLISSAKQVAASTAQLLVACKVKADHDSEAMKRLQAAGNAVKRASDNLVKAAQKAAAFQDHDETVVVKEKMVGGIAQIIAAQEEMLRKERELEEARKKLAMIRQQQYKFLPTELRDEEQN

Variant	effect of a mutation on the interaction
E1015A	disrupting interaction
